Source: PMC11385167 (mAbs, 2024)

Biological target: T1, human MR C-type 1, full extracellular domain (human, UniProt P22897 19-1389)
T1 sequence (looked up): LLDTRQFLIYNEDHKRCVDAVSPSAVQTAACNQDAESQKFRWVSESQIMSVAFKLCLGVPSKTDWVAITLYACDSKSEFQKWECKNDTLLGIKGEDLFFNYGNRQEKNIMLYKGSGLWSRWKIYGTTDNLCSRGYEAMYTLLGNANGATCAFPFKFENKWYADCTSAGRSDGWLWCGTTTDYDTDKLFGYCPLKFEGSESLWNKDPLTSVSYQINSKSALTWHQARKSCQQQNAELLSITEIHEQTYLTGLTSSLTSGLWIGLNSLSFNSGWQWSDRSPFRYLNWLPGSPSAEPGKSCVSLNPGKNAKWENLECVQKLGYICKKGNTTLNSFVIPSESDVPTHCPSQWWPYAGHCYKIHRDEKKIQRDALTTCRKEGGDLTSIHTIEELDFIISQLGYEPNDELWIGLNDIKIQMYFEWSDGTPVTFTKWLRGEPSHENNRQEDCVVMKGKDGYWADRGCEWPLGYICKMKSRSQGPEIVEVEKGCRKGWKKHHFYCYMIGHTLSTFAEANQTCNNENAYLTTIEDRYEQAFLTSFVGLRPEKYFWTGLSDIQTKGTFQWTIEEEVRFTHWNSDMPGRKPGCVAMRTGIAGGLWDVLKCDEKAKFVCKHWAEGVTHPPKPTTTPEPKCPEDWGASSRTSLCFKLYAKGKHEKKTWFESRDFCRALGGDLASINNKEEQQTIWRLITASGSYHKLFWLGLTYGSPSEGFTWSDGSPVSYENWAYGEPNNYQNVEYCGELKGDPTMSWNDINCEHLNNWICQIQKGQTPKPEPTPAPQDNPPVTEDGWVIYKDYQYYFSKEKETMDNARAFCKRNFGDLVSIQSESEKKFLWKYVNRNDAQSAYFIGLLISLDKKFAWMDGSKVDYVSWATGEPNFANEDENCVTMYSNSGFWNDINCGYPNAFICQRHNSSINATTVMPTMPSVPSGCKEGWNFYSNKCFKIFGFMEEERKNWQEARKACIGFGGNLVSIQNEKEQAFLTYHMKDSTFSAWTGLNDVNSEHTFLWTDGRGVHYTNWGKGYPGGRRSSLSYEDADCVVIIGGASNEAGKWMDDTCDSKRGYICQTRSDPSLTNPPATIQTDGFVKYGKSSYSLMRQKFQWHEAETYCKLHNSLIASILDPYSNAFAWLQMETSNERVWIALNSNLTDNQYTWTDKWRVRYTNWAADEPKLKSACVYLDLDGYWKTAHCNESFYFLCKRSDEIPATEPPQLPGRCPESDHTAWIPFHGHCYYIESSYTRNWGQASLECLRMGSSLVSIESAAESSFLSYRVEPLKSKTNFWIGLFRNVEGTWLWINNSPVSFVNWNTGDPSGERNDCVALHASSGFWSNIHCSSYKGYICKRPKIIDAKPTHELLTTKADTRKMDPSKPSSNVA
Test: SPR

B1: RNAse B (enzyme, UniProt P61823 27-150, looked up)
chain: KETAAAKFERQHMDSSTSAASSSNYCNQMMKSRNLTKDRCKPVNTFVHESLADVQAVCSQKNVACKNGQTNCYQSYSTMSITDCRETGSSKYPNCAYKTTQANKHIIVACEGNPYVPVHFDASV
modifications: single N-glycosylation site containing mainly M5 and M6 N-glycans
Kd: 1300 nM
